Measured values: publication PMC9561763, “Semi-rational engineering membrane binding domain of L-amino acid deaminase from Proteus vulgaris for enhanced α-ketoisocaproate” (Frontiers in Microbiology, 2022)

Substrate: CC(C)C[C@H](N)C(=O)O
Experiment: alpha-ketoisocaproate formation, Michaelis-Menten fit
Assay type: biochemical, Proteus vulgaris
Conditions: 20 mM phosphate pH 7.5, 37 °C, 0-175 mM L-leucine (b36 says optimal temperature and pH), Triton X-100 purified enzyme
Source text: alpha-ketoisocaproate formation, Michaelis-Menten fit on L-amino acid deaminase (L-AAD) from Proteus vulgaris

B1: L-amino acid deaminase (L-AAD) from Proteus vulgaris (Proteus vulgaris) (protein)
chain: MAISRRKFIIGGTVVAVAAGAGILTPMLTREGRFVPGTPRHGFVEGTEGALPKQADVVVVGAGILGIMTAINLVERGLSVVIVEKGNIAGEQSSRFYGQAISYKMPDETFLLHHLGKHRWREMNAKVGIDTTYRTQGRVEVPLDEEDLVNVRKWIDERSKNVGSDIPFKTRIIEGAELNQRLRGATTDWKIAGFEEDSGSFDPEVATFVMAEYAKKMGVRIYTQCAARGLETQAGVISDVVTEKGAIKTSQVVVAGGVWSRLFMQNLNVDVPTLPAYQSQQLISGSPTAPGGNVALPGGIFFREQADGTYATSPRVIVAPVVKESFTYGYKYLPLLALPDFPVHISLNEQLINSFMQSTHWNLDEVSPFEQFRNMTALPDLPELNASLEKLKAEFPAFKESKLIDQWSGAMAIAPDENPIISEVKEYPGLVINTATGWGMTESPVSAELTADLLLGKKPVLDPKPFSLYRF
- Km: 17.71 mM
- kcat: 1.41 s⁻¹
- kcat/Km: 79.5 M⁻¹ s⁻¹
